Assay results: patent US20130230504A1 (CHILDREN S MEDICAL CENTER, published 2013)
One block for each molecule: values may come before it.

Key:
[1] = target: VEGF165 receptor (VEGF165R) (human) (UniProt O14786); assay: competition with 125I-VEGF165 (5 ng/ml) on HUVEC at 2 ug/ml GST-Ex 7, gamma counting
[2] = target: VEGF165 receptor (VEGF165R) (human) (UniProt O14786); assay: competition with 125I-VEGF165 (5 ng/ml) on MDA-MB-231 cells (VEGF165R only), increasing GST-Ex 7+8, gamma counting
[3] = target: VEGF165 receptor (VEGF165R) (human) (UniProt O14786); assay: competition with 125I-VEGF165 (5 ng/ml) on HUVEC (KDR/Flk-1 and VEGF165R), increasing GST-Ex 7+8, gamma counting
KDR/Flk-1 = KDR/Flk-1 (human, UniProt P35968 20-1356); assay: cell-based or functional assay
KDR/Flk-1, sequence (P35968 20-1356): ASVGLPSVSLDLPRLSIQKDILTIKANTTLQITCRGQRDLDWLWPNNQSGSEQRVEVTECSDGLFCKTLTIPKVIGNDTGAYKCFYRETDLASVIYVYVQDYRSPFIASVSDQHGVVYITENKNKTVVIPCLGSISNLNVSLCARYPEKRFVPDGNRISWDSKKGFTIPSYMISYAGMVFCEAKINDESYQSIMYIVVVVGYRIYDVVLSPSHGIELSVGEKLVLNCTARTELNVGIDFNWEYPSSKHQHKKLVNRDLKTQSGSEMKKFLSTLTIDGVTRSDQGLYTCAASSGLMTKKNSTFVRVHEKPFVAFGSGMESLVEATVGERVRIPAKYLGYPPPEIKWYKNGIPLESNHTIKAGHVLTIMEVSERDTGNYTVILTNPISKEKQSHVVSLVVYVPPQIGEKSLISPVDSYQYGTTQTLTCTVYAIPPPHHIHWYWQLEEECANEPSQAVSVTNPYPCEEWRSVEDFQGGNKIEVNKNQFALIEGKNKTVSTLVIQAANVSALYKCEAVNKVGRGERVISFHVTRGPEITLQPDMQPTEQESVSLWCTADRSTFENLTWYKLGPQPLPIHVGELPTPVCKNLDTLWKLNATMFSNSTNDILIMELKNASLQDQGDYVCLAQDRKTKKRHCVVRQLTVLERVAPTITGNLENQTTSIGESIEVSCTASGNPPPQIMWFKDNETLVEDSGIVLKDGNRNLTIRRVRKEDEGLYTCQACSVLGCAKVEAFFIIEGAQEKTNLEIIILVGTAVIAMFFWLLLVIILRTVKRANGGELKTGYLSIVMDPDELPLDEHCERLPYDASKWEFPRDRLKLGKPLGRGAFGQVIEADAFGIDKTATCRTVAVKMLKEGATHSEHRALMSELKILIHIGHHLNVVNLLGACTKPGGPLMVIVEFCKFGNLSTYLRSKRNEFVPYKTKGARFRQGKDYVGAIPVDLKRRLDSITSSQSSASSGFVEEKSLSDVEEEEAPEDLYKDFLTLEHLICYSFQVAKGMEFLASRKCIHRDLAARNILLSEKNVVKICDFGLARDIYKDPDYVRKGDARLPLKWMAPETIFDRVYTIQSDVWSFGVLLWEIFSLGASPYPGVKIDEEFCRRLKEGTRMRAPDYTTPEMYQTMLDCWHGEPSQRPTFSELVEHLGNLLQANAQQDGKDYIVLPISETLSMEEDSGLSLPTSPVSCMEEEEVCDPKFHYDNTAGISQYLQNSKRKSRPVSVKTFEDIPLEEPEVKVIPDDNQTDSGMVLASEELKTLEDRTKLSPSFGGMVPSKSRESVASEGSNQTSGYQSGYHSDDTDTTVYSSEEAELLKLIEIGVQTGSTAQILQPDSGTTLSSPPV

VEGF165 receptor (VEGF165R) (human), sequence (O14786 22-923): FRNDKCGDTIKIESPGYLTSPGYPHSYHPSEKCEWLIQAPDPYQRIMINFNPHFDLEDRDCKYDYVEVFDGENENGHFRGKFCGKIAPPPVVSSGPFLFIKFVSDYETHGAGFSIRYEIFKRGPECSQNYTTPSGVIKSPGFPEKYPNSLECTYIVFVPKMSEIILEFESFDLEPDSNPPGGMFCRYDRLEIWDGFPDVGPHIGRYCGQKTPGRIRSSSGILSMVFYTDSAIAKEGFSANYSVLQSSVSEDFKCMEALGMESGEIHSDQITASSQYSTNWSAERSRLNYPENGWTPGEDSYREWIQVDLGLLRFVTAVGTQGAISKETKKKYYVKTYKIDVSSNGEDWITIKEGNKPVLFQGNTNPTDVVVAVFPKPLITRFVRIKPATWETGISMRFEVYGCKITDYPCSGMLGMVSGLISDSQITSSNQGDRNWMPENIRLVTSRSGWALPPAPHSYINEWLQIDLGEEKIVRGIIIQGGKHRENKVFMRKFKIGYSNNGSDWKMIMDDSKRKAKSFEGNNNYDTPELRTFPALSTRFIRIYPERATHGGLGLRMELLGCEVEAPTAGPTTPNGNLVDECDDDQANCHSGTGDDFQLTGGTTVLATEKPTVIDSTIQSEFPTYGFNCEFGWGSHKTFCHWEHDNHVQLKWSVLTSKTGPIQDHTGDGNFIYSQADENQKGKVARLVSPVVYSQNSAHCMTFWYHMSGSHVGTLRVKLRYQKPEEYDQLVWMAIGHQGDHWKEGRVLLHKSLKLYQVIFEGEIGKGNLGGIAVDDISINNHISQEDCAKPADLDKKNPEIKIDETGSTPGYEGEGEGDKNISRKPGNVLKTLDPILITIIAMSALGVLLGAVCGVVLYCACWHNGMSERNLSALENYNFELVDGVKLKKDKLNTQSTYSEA

- percent inhibition of 125I-VEGF165 binding [1]: 80%
Molecule: GST-Ex 7 fusion protein (GST fused to the 44 amino acids encoded by VEGF exon 7 plus the first cysteine of exon 8) (from UniProt P08515 1-218)

- percent inhibition of 125I-VEGF165 binding [2]: 97 to 98%
- percent inhibition of 125I-VEGF165 binding [3]: 85 to 95%
Molecule: GST-Ex 7+8 fusion protein (GST fused to the VEGF165 exons 7- and 8-encoded peptide) (from UniProt P15692 187-191)

- fold decrease in VEGF121-mediated HUVEC proliferation with 15 ug/ml GST-Ex 7+8 (KDR/Flk-1): ~2 fold
B1: Human recombinant VEGF121 (ligand, UniProt P15692-9 27-147, looked up)
chain: APMAEGGGQNHHEVVKFMDVYQRSYCHPIETLVDIFQEYPDEIEYIFKPSCVPLMRCGGCCNDEGLECVPTEESNITMQIMRIKPHQGQHIGEMSFLQHNKCECRPKKDRARQEKCDKPRR
modifications: radioiodinated (125I, IODO-BEADS) in the cross-linking assays
